Measurements reported in US20230002458A1 (ALPHABETA, published 2023).

Columns and labels:
[1] = target: T1, rh wt Bri2 BRICHOS-mCherry oligomers (human, UniProt A5A6H8 113-231 (Pan troglodytes entry)); experiment: cell-based or functional assay
T1 sequence: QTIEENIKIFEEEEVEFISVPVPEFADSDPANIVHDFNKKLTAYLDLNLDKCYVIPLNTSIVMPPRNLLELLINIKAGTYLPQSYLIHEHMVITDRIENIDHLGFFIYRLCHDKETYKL

[2] = target: the molecule itself; experiment: size exclusion chromatography, self-association

Binder | release of wt monomers from oligomers after co-incubation [1] | binding result [2]
rh Bri2 BRICHOS R221E monomer (other) QTIEENIKIFEEEEVEFISVPVPEFADSDPANIVHDFNKKLTAYLDLNLDKCYVIPLNTSIVMPPRNLLELLINIKAGTYLPQSYLIHEHMVITDRIENIDHLGFFIYELCHDKETYKL | ~2 molar ratio mutant:wt | –
rh wt Bri2 BRICHOS (other, also called Bri2 BRICHOS [Bri2(113-231)]; wt protein) QTIEENIKIFEEEEVEFISVPVPEFADSDPANIVHDFNKKLTAYLDLNLDKCYVIPLNTSIVMPPRNLLELLINIKAGTYLPQSYLIHEHMVITDRIENIDHLGFFIYRLCHDKETYKL | – | binds
